Some results are limits rather than exact numbers.

First the molecules themselves.
B2: Fc-fused recombinant human P75 (Fc fusion, UniProt P08138 29-250, looked up)
chain: KEACPTGLYTHSGECCKACNLGEGVAQPCGANQTVCEPCLDSVTFSDVVSATEPCKPCTECVGLQSMSAPCVEADDAVCRCAYGYYQDETTGRCEACRVCEAGSGLVFSCQDKQNTVCEECPDGTYSDEANHVDPCLPCTVCEDTERQLRECTRWADAECEEIPGRWITRSTPPEGSDSTAPSTQEPEAPPEQDLIASTVAGVVTTVMGSSQPVVTRGTTDN
notes: Bought from R&D Systems or made in-house; also called p75 neurotrophin receptor; LNGFR; not shown: Fc part

Common to all, as to experiment: SPR (Biacore 3000), Fc-fused receptor amine-coupled to CM5 chip, ligand in solution, 25 C
The target of assay [1] is T1, human TrkB-Fc fusion protein (human, UniProt Q16620 32-430).
T1 construct: Bought from R&D Systems or made in-house; also called HuTrkB; Fc-fused recombinant human TrkB; not shown: Fc part
T1 sequence (Q16620 32-430 limits assumed): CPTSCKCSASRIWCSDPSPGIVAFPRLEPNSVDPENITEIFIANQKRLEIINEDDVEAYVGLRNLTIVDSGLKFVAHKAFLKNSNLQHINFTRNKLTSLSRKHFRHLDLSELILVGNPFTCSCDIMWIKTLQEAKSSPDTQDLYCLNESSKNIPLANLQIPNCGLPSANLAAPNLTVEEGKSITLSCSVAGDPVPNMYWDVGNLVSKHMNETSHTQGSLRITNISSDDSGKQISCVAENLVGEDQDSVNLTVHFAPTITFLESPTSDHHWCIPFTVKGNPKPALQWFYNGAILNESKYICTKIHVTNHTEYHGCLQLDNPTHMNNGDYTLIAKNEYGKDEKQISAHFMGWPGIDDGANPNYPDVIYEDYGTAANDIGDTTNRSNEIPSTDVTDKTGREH
The method, then: (§1) A standard amine-coupling protocol was used in HBS-EP running buffer at 5 μl/min and involved three steps. […]. First, flow cells were activated with a 7-minute injection of a freshly prepared mixture of 200 mM EDC in 50 mM NHS; this step converted the chip's carboxylic acid groups to reactive esters. Next, receptors were diluted to ˜10 μg/mL in 10 mM sodium acetate buffer at pH 4.5 and coupled to the chip until the desired level had been reached. Finally, excess reactive esters were blocked with a 7-minute injection of 1M sodium ethanolamine-HCl (pH 8.5).
(§2) The Fab fragment of antibody 200.38B8 (38B8) was diluted from 0.7-480 nM in 3-fold increments. Samples were injected for 30 seconds at 100 μl/min allowing dissociation times of up to 10 mins. After each binding cycle, receptor surfaces were regenerated with a mildly acidic cocktail (10 mM glycine-HCl (pH 4.0), 500 mM NaCl, and 20 mM EDTA). […] Kinetic rate constants (kon and koff) were determined by fitting the binding data globally to a mass transport model and binding affinities were calculated from their ratio, KD=koff/kon.

In assay [2] the target is ProNGF (UniProt P01138 19-241). The procedure:
as §1, §2

In assay [3] the target is T2, Fc-fused recombinant human TrkC (human, UniProt Q16288 32-429).
T2 construct: Bought from R&D Systems or made in-house; not shown: Fc part
The procedure: as §1, §2

The target in assay [4] is B2. The procedure:
as §1, §2

Assay [5] concerns the target T3, Fc-fused recombinant human TrkA (human, UniProt P04629-2 33-407, limits assumed).
T3 construct: Bought from R&D Systems or made in-house; not shown: Fc part
The procedure:
as §1, §2

Chain of ProNGF (P01138 19-241): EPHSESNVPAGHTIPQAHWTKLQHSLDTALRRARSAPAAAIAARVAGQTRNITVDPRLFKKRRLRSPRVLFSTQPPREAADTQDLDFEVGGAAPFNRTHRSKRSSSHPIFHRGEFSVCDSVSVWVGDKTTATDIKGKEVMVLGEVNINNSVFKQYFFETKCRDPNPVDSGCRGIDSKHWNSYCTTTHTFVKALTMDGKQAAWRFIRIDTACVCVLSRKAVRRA
T3 sequence (P04629 other isoform, or with tags, fused parts or gaps limits assumed): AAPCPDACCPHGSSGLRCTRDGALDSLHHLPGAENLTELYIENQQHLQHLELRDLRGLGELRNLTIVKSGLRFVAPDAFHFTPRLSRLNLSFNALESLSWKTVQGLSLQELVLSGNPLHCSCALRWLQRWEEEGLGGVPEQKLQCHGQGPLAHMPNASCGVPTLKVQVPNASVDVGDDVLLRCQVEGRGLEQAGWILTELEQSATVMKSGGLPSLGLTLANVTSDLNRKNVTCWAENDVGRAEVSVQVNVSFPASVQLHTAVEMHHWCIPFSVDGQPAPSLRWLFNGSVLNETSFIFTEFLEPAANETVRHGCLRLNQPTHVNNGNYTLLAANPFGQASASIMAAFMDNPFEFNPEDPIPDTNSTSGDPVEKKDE

B1: NT3 (ligand, UniProt P20783 139-257, looked up)
chain: YAEHKSHRGEYSVCDSESLWVTDKSSAIDIRGHQVTVLGEIKTGNSPVKQYFYETRCKEARPVKNGCRGIDDKHWNSQCKTSQTYVRALTSENNKLVGWRWIRIDTSCVCALSRKIGRT
notes: 'native ligands' bought from R&D Systems or made in-house
Usually Kd stands for a measure of binding affinity in units of concentration. Turning to B1, the Kd in assay [1] is < 4.4 nM.

As a reminder, the koff is the first-order rate constant of dissociation. As a reminder, the kon is the rate constant with which the complex forms. Regarding B2, in assay [2], the Kd worked out at 130 nM, the koff stood at 0.0858 s⁻¹ and the kon came to 658000 M⁻¹ s⁻¹.

B3: NT4/5 (ligand, UniProt P34130 81-210, looked up)
chain: GVSETAPASRRGELAVCDAVSGWVTDRRTAVDLRGREVEVLGEVPAAGGSPLRQYFFETRCKADNAEEGGPGAGGGGCRGVDRRHWVSECKAKQSYVRALTADAQGRVGWRWIRIDTACVCTLLSRTGRA
B3: the binding result in assay [3] was “no binding (tested: 0.08-250 nM)”. For the same molecule, the Kd in assay [4] was 88 nM; in assay [5] it was 17 nM; in assay [1] it was < 0.2 nM. Moreover, the results for the off-rate constant (koff) in assay [4], in assay [5] and in assay [1] were 0.305 s⁻¹, 0.04 s⁻¹ and 0.002 s⁻¹, respectively. The figures for the kon in assay [4], in assay [5] and in assay [1] were 3.45e+06 M⁻¹ s⁻¹, 2.1e+06 M⁻¹ s⁻¹ and > 1e+07 M⁻¹ s⁻¹, respectively.

B4: brain-derived neurotrophic factor (BDNF) (ligand, UniProt P23560 129-247, looked up)
chain: HSDPARRGELSVCDSISEWVTAADKKTAVDMSGGTVTVLEKVPVSKGQLKQYFYETKCNPMGYTKEGCRGIDKRHWNSQCRTTQSYVRALTMDSKKRIGWRFIRIDTSCVCTLTIKRGR
With B4, the Kd in assay [4] was < 2.1 nM; in assay [1] it was < 0.034 nM.

The values above are taken from US20100086997A1 (published 2010).
